Assay results published in the Human Domainome abundance scans (Beltran et al. 2025).
± gives the uncertainty stated by the source.

B1: PDZ and LIM domain protein 2, residues 284 to 339; numbered along this chain, Q96JY6 (parent)
chain: HTCEKCSTSIANQAVRIQEGRYRHPGCYTCADCGLNLKMRGHFWVGDELYCEKHAR
B2: Chromodomain-helicase-DNA-binding protein 4, residues 623 to 675; numbered along this chain, Q14839 (parent)
chain: MIHRILNHSVDKKGHVHYLIKWRDLPYDQASWESEDVEIQDYDLFKQSYWNHR

Variants of: B1
Test: abundance fitness (aPCA) (normalised: wild type 0, dead -1); higher = more abundant; growth selection in yeast, the domain comes from the species named
Settings: Homo sapiens

Variant	abundance fitness
ATCEKCSTSIANQAVRIQEGRYRHPGCYTCADCGLNLKMRGHFWVGDELYCEKHAR [H1A]	-0.24 ± 0.27

Variants of: B2
Test: as above
Settings: Homo sapiens

Variant	abundance fitness
K46S	-0.838 ± 0.1
K46G	-0.846 ± 0.099
K46T	-0.748 ± 0.13
K46W	-0.856 ± 0.15
K46Y	-0.856 ± 0.15
K46L	-0.593 ± 0.089
K46A	-0.898 ± 0.16
K46E	-0.734 ± 0.16
K46R	-0.796 ± 0.09
K46I	-0.465 ± 0.14
K46Q	-0.485 ± 0.1
K46F	-0.917 ± 0.17
K46N	-0.886 ± 0.16
K46H	-0.909 ± 0.19
K46D	-0.886 ± 0.16
K46P	-0.875 ± 0.13
I39C	-0.753 ± 0.2
I39D	-0.992 ± 0.21
I39R	-0.756 ± 0.098
I39E	-1.02 ± 0.2
I39T	-0.72 ± 0.13
I39F	0.139 ± 0.15
I39W	-0.818 ± 0.13
I39P	-0.897 ± 0.16

Variant	abundance fitness
I39S	-0.745 ± 0.11
I39G	-0.847 ± 0.12
I39Y	-0.195 ± 0.14
I39L	0.026 ± 0.089
I39H	-0.39 ± 0.15
I39N	-1.06 ± 0.24
I39Q	-0.764 ± 0.18
I39M	-0.462 ± 0.14
I39K	-0.879 ± 0.2
I39V	-0.722 ± 0.12
I39A	-0.805 ± 0.12
Q40P	-0.061 ± 0.11
Q40S	-0.286 ± 0.091
Q40T	-0.036 ± 0.094
Q40V	-0.131 ± 0.085
Q40L	-0.271 ± 0.092
Q40A	-0.052 ± 0.086
Q40C	-0.043 ± 0.14
Q40D	-0.047 ± 0.11
Q40Y	-0.504 ± 0.13
Q40E	-0.061 ± 0.13
Q40M	-0.14 ± 0.099
Q40I	-0.252 ± 0.14
Q40H	-0.122 ± 0.11

Variant	abundance fitness
Q40W	-0.549 ± 0.13
Q40R	-0.161 ± 0.083
Q40K	0.041 ± 0.088
Q40F	-0.548 ± 0.2
D43M	-0.262 ± 0.13
D43Q	-0.047 ± 0.11
D43G	-0.147 ± 0.092
D43T	-0.367 ± 0.12
D43Y	-0.253 ± 0.15
D43R	-0.577 ± 0.1
D43C	-0.236 ± 0.16
D43L	-0.423 ± 0.084
D43K	-0.456 ± 0.14
D43E	0.099 ± 0.1
D43W	-0.219 ± 0.13
D43N	-0.161 ± 0.12
D43S	-0.307 ± 0.088
D43H	-0.186 ± 0.13
D43A	-0.205 ± 0.081
D43F	-0.394 ± 0.16
D43I	-0.862 ± 0.25
Y49V	-0.877 ± 0.1
Y49R	-1 ± 0.13
Y49I	-1.13 ± 0.24

Variant	abundance fitness
Y49K	-0.658 ± 0.15
Y49S	-0.953 ± 0.13
Y49G	-0.811 ± 0.1
Y49W	-0.951 ± 0.15
Y49T	-0.916 ± 0.11
Y49P	-0.696 ± 0.15
Y49F	-0.7 ± 0.18
Y49Q	-0.997 ± 0.21
Y49A	-0.783 ± 0.12
Y49L	-0.751 ± 0.12
Y49M	-0.747 ± 0.13
Y49C	-1.01 ± 0.18
W50V	-0.783 ± 0.099
W50T	-0.733 ± 0.17
W50N	-0.766 ± 0.24
W50H	-0.779 ± 0.26
W50A	-0.808 ± 0.13
W50Q	-0.959 ± 0.27
W50E	-0.879 ± 0.17
W50I	-0.813 ± 0.21
W50D	-1.23 ± 0.26
W50L	-0.811 ± 0.11
W50Y	-0.554 ± 0.25
W50P	-0.824 ± 0.19

Variant	abundance fitness
W50G	-0.813 ± 0.083
W50R	-0.725 ± 0.089
W50C	-0.793 ± 0.12
W50S	-0.653 ± 0.11
W50F	-0.861 ± 0.17
W50K	-0.511 ± 0.17
E35D	-0.332 ± 0.18
E35Q	-0.391 ± 0.12
E35M	-0.874 ± 0.15
E35F	-0.934 ± 0.21
E35C	-0.717 ± 0.16
E35H	-0.769 ± 0.24
E35W	-0.684 ± 0.15
E35P	-0.874 ± 0.18
E35A	-0.141 ± 0.11
E35L	-0.833 ± 0.1
E35I	-0.765 ± 0.21
E35Y	-0.757 ± 0.15
E35G	-0.22 ± 0.1
E35T	-0.45 ± 0.12
E35K	-0.844 ± 0.17
E35R	-0.882 ± 0.1
E35V	-0.809 ± 0.12
E35S	-0.131 ± 0.089

Variant	abundance fitness
N51F	-0.11 ± 0.2
N51S	-0.079 ± 0.1
N51W	-0.45 ± 0.12
N51Y	-0.267 ± 0.21
N51M	0.01 ± 0.12
N51K	-0.167 ± 0.13
N51T	0.037 ± 0.13
N51L	-0.194 ± 0.089
N51Q	0.004 ± 0.14
N51I	-0.564 ± 0.23
N51C	-0.428 ± 0.15
N51V	-0.341 ± 0.1
N51A	0.014 ± 0.1
N51R	0.105 ± 0.089
N51D	0.01 ± 0.16
N51H	-0.23 ± 0.14
Y42L	-0.592 ± 0.31
Y42K	-0.767 ± 0.49
E38N	-0.472 ± 0.16
E38R	-0.37 ± 0.091
E38D	-0.175 ± 0.15
E38W	-0.257 ± 0.12
E38Q	-0.018 ± 0.15
E38S	-0.157 ± 0.087

Variant	abundance fitness
E38C	-0.144 ± 0.13
E38M	-0.095 ± 0.13
E38H	-0.324 ± 0.14
E38P	-0.2 ± 0.11
E38Y	-0.337 ± 0.14
E38I	-0.122 ± 0.11
E38V	-0.217 ± 0.085
E38T	-0.187 ± 0.098
E38F	-0.113 ± 0.11
E38L	-0.199 ± 0.086
E38G	-0.227 ± 0.1
S48H	0.119 ± 0.12
S48R	0.14 ± 0.075
S48P	-0.628 ± 0.13
S48K	0.043 ± 0.097
S48D	0.043 ± 0.12
S48W	-0.412 ± 0.1
S48A	0.07 ± 0.078
S48V	-0.011 ± 0.075
S48L	-0.01 ± 0.076
S48F	-0.236 ± 0.11
S48E	0.067 ± 0.087
S48Q	-0.053 ± 0.1
S48T	-0.124 ± 0.096

Variant	abundance fitness
S48Y	0.093 ± 0.13
S48M	0.016 ± 0.091
S48C	-0.083 ± 0.12
S48G	-0.206 ± 0.087
R53N	-0.313 ± 0.48
R53W	-0.044 ± 0.16
R53V	-0.09 ± 0.14
R53L	-0.104 ± 0.21
R53Q	0.025 ± 0.27
R53T	-0.221 ± 0.18
R53E	-0.189 ± 0.25
R53K	-0.22 ± 0.22
R53H	-0.185 ± 0.3
R53Y	0.011 ± 0.2
R53C	-0.086 ± 0.21
R53S	-0.141 ± 0.19
R53P	-0.481 ± 0.28
R53D	-0.161 ± 0.26
D41Y	-0.431 ± 0.13
D41Q	-0.191 ± 0.14
D41W	-0.529 ± 0.12
D41K	-0.555 ± 0.14
D41S	-0.481 ± 0.09
D41L	-0.846 ± 0.13

Variant	abundance fitness
D41V	-0.81 ± 0.11
D41E	-0.507 ± 0.13
D41H	-0.459 ± 0.19
D41M	-0.79 ± 0.14
D41F	-0.331 ± 0.17
D41C	-0.807 ± 0.14
D41I	-0.929 ± 0.19
D41R	-0.863 ± 0.12
D41N	-0.151 ± 0.11
D41G	-0.283 ± 0.093
D41T	-0.892 ± 0.15
Q47K	0.239 ± 0.12
Q47A	-0.114 ± 0.1
Q47T	0.022 ± 0.099
Q47I	0.132 ± 0.12
Q47F	-0.318 ± 0.13
Q47L	-0.374 ± 0.094
Q47N	0.087 ± 0.11
Q47H	-0.051 ± 0.14
Q47D	-0.289 ± 0.11
Q47E	-0.052 ± 0.11
Q47P	-0.804 ± 0.16
Q47C	-0.423 ± 0.096
Q47M	-0.452 ± 0.14

Variant	abundance fitness
Q47R	-0.084 ± 0.078
Q47Y	-0.343 ± 0.16
Q47S	-0.05 ± 0.081
Q47W	-0.475 ± 0.11
Q47G	-0.483 ± 0.088
L44M	0.085 ± 0.13
L44H	-0.034 ± 0.077
L44Y	-0.089 ± 0.084
L44R	0.058 ± 0.072
L44C	-0.293 ± 0.13
L44K	0.111 ± 0.2
L44S	-0.015 ± 0.069
L44F	-0.201 ± 0.11
L44N	-0.131 ± 0.092
L44W	-0.302 ± 0.18
L44E	-0.211 ± 0.15
L44G	-0.342 ± 0.073
L44Q	-0.11 ± 0.12
L44A	-0.014 ± 0.069
L44D	-0.16 ± 0.087
L44V	0.074 ± 0.074
L44P	-0.91 ± 0.098
H52I	-0.29 ± 0.15
H52D	-0.177 ± 0.15

Variant	abundance fitness
H52Y	-0.254 ± 0.12
H52V	-0.016 ± 0.11
H52E	0.139 ± 0.16
H52L	-0.017 ± 0.13
H52S	0.106 ± 0.1
H52T	0.185 ± 0.14
H52C	-0.103 ± 0.13
H52N	0.023 ± 0.18
H52G	0.022 ± 0.082
H52K	0.088 ± 0.18
H52M	-0.18 ± 0.13
H52P	-0.363 ± 0.15
H52R	0.058 ± 0.08
F45A	-0.013 ± 0.085
F45W	-0.279 ± 0.13
F45D	-0.568 ± 0.12
F45M	-0.283 ± 0.13
F45I	-0.423 ± 0.085
F45H	0.119 ± 0.09
F45G	-0.856 ± 0.12
F45C	-0.306 ± 0.11
F45Q	-0.71 ± 0.16
F45R	-0.757 ± 0.099
F45T	-0.64 ± 0.12

Variant	abundance fitness
F45P	-0.857 ± 0.11
F45K	-0.391 ± 0.15
F45E	-0.735 ± 0.28
F45V	-0.616 ± 0.1
F45S	-0.444 ± 0.077
F45L	-0.388 ± 0.08
F45N	-0.627 ± 0.12
S34I	-0.852 ± 0.23
S34L	-0.411 ± 0.089
S34T	-0.377 ± 0.11
S34Y	-0.731 ± 0.15
S34A	-0.103 ± 0.1
S34Q	-0.111 ± 0.12
S34H	0.136 ± 0.14
S34P	-0.022 ± 0.1
S34E	-0.004 ± 0.12
S34M	-0.441 ± 0.14
S34R	-0.081 ± 0.076
S34K	0.086 ± 0.14
S34C	0.155 ± 0.1
S34G	-0.106 ± 0.085
S34F	-0.618 ± 0.12
S34N	-0.137 ± 0.18
D36A	-0.455 ± 0.11

Variant	abundance fitness
D36C	-0.363 ± 0.13
D36H	-0.105 ± 0.11
D36N	0.134 ± 0.11
D36I	-0.915 ± 0.18
D36E	-0.102 ± 0.13
D36S	-0.079 ± 0.085
D36F	-0.267 ± 0.15
D36P	-0.909 ± 0.18
D36K	-0.073 ± 0.12
D36L	-0.402 ± 0.086
D36V	-0.833 ± 0.14
D36G	-0.299 ± 0.1
D36Q	-0.415 ± 0.14
D36M	-0.372 ± 0.12
D36W	-0.37 ± 0.11
D36R	-0.255 ± 0.084
D36T	-0.2 ± 0.11
V37K	0.182 ± 0.14
V37H	-0.126 ± 0.087
V37C	0.117 ± 0.1
V37T	-0.001 ± 0.083
V37W	-0.985 ± 0.21
V37Q	0.052 ± 0.14
V37G	-0.246 ± 0.095

Variant	abundance fitness
V37M	0.171 ± 0.11
V37E	-0.039 ± 0.16
V37L	-0.058 ± 0.075
V37Y	-0.361 ± 0.1
V37A	0.109 ± 0.077
V37F	-0.166 ± 0.097
V37P	-0.746 ± 0.11
V37I	-0.217 ± 0.089
V37N	0.155 ± 0.088
V37R	0.212 ± 0.089
V37D	-0.262 ± 0.1
E33Q	-0.152 ± 0.11
E33Y	-0.406 ± 0.15
E33P	-0.895 ± 0.16
E33N	-0.651 ± 0.21
E33W	-0.566 ± 0.13
E33L	-0.164 ± 0.084
E33R	-0.254 ± 0.095
E33V	0.036 ± 0.11
E33K	-0.072 ± 0.13
E33I	0.101 ± 0.15
